Patent USRE48805 (VISION GLOBAL, dated 2021)

Target: human serum albumin (HSA) (human, UniProt P02768 25-609)
Assay: native polyacrylamide gel (10%) shift after 60 min incubation at room temperature at the stated HSA:AAD molar ratios

Sequence of human serum albumin (HSA) (P02768 25-609 limits assumed): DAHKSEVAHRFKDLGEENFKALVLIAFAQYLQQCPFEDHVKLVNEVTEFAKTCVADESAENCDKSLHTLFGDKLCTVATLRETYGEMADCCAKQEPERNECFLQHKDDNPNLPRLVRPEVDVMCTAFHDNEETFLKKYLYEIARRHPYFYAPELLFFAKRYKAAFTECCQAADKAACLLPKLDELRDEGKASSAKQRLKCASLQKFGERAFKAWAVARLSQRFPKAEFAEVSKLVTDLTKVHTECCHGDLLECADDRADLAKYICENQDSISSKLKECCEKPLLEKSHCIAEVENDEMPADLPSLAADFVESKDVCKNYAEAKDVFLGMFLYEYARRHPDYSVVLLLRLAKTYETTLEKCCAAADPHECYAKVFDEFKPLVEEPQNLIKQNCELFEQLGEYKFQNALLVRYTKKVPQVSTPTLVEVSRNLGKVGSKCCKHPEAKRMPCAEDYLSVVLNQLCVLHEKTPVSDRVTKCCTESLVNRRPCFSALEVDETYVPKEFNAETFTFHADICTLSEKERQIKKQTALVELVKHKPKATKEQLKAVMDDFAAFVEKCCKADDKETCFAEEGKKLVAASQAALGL

B1: albumin-binding arginine deiminase (AAD) fusion protein His-ABD-PolyN-ADI (enzyme)
chain: MHHHHHHDEAVDANSLAEAKVLANRELDKYGVSDYYKNLINNAKTVEGVKALIDEILAALPSGSNNNNNNGSGGSVFDSKFKGIHVYSEIGELESVLVHEPGREIDYITPARLDELLFSAILESHDARKEHKQFVAELKANDINVVELIDLVAETYDLASQEAKDKLIEEFLEDSEPVLSEEHKVVVRNFLKAKKTSRELVEIMMAGITKYDLGIEADHELIVDPMPNLYFTRDPFASVGNGVTIHYMRYKVRQRETLFSRFVFSNHPKLINTPWYYDPSLKLSIEGGDVFIYNNDTLVVGVSERTDLQTVTLLAKNIVANKECEFKRIVAINVPKWTNLMHLDTWLTMLDKDKFLYSPIANDVFKFWDYDLVNGGAEPQPVENGLPLEGLLQSIINKKPVLIPIAGEGASQMEIERETHFDGTNYLAIRPGVVIGYSRNEKTNAALEAAGIKVLPFHGNQLSLGMGNARCMSMPLSRKDVKW
- binding result: binds
